# In patent US20260248972A1, “DUAL RECEPTOR TARGETING RADIOLIGANDS AND USES THEREOF RELATED APPLICATIONS” (priority 2022, published 2026):
# *1 amine or outer side, *2 acyl side, *3 side chain or, on linkers, in order; H or OH if unused. Where a SMILES comes first, the peptide text is derived from it. Bridges are numbered along the chain shown (N, C = ends). Side-chain parts run from the residue outwards. [ ]: non-standard residue; d: D form. The star is where a group is joined. X1 = CC(C)(C)C(=O)CN1C(=O)[C@H](N*)CN(C2CCCCC2)c2ccccc21; DOTA = O=C(O)CN1CCN(CC(=O)O)CCN(CC(=O)*)CCN(CC(=O)O)CC1; 3Abz = Nc1cccc(C(=O)O)c1; CO = O=C([*:1])[*:2]
# Experiment: in vivo
# Conditions: BALB/c nude, mouse, in vivo, iv, total radioactivity
# Protocol: To a 0.5 M NaOAc buffer (20-50 μL, pH=4.5) was added 4 μL of exemplary or comparator compound in DMSO stock solution (2000 μM) and 2 mCi ^177Lu (ITM Isotope Technologies Munich), the resulting mixture was heated to 95° C. for 15 min. The resulting product was analyzed by radio-TLC and radio-HPLC (column: Shim-pack GIST 5 μm 4.6*150 mm; buffer A: 0.2% formic acid H2O; buffer B: 0.1% formic acid acetonitrile; flow rate: 1 mL/min; gradient: 0-5 min: 10% B to 95% B; then 5-8 min: 95% B). The labelled products were used immediately or diluted by a PBS buffer containing freshly added 3 mg/mL ascorbate.
# All animal care and experimental procedure were performed by following the animal protocols approved by the ethics committee of China Institute of Radiation Protection. The BALB/c nude mice (Charles River, Beijing) were utilized for these studies. Mice were below 5 per cage in sterile, microisolator cages under temperature- and humidity-controlled conditions with a 12 h light/12 h dark schedule and fed irradiated rodent chow and reverse osmosis (RO) sterile water ad libitum. In preparation for tumor cell inoculations, mice were anesthetized with isoflurane (RWD Life Science Inc.) at an induction rate of 4% and maintained at a rate of 2.5% with 0.4 L oxygen delivered via precision vaporizer and a non-rebreathing apparatus. These mice received subcutaneous rear flank injections of approximately 4×10^6 AR42J cells ([…] pancreatic cancer cell line) suspended in 200 μL of phosphate-buffered saline (PBS) and Matrigel (Corning) (1/1). Xenografted tumors were allowed to grow for ~2-4 weeks post-inoculation and ranged in mass from 0.05 to 0.50 g (average tumor size, 0.20 g). […] The mice were euthanized, and the tissues and organs were excised from the animals at 4, 24 and 72 h post-injection. The tissues and organs were weighed, counted in a PerkinElmer 2480 WIZARD2 γ counter, and the percent injected dose (% ID) and % ID/g of each organ or tissue were calculated.
compound,measurement,setting,value
"C[C@@H](O)[C@H](NC(=O)[C@@H]1CSSC[C@H](NC(=O)[C@@H](Cc2ccccc2)NC(=O)COCCOCCNC(=O)[C@H](CCCCNC(=O)c2cccc(NC(=O)N[C@@H]3CN(C4CCCCC4)c4ccccc4N(CC(=O)C(C)(C)C)C3=O)c2)NC(=O)CN2CCN(CC(=O)O)CCN(CC(=O)O)CCN(CC(=O)O)CC2)C(=O)N[C@@H](Cc2ccc(O)cc2)C(=O)N[C@H](Cc2c[nH]c3ccccc23)C(=O)N[C@@H](CCCCN)C(=O)N[C@@H]([C@@H](C)O)C(=O)N1)C(=O)O [Compound 177Lu-I-37, metal not drawn]",tissue uptake at 4 h,% ID/g Adrenal gland,2.01 %ID/g
same,tissue uptake at 24 h,% ID/g Adrenal gland,1.43 %ID/g
same,tissue uptake at 72 h,% ID/g Adrenal gland,0.22 %ID/g
same,tissue uptake at 4 h,% ID/g Blood,0.94 %ID/g
same,tissue uptake at 24 h,% ID/g Blood,0.18 %ID/g
same,tissue uptake at 72 h,% ID/g Blood,0.05 %ID/g
same,tissue uptake at 4 h,% ID/g Fat,3.28 %ID/g
same,tissue uptake at 24 h,% ID/g Fat,0.4 %ID/g
same,tissue uptake at 72 h,% ID/g Fat,0.32 %ID/g
same,tissue uptake at 4 h,% ID/g Femur,0.83 %ID/g
same,tissue uptake at 24 h,% ID/g Femur,0.26 %ID/g
same,tissue uptake at 72 h,% ID/g Femur,0.18 %ID/g
same,tissue uptake at 4 h,% ID/g Heart,1.12 %ID/g
same,tissue uptake at 24 h,% ID/g Heart,0.4 %ID/g
same,tissue uptake at 72 h,% ID/g Heart,0.15 %ID/g
same,tissue uptake at 4 h,% ID/g Intestine,2.17 %ID/g
same,tissue uptake at 24 h,% ID/g Intestine,0.67 %ID/g
same,tissue uptake at 72 h,% ID/g Intestine,0.5 %ID/g
same,tissue uptake at 4 h,% ID/g Kidney,22.5 %ID/g
same,tissue uptake at 24 h,% ID/g Kidney,7.79 %ID/g
same,tissue uptake at 72 h,% ID/g Kidney,3.16 %ID/g
same,tissue uptake at 4 h,% ID/g Liver,11 %ID/g
same,tissue uptake at 24 h,% ID/g Liver,2.4 %ID/g
same,tissue uptake at 72 h,% ID/g Liver,2.03 %ID/g
same,tissue uptake at 4 h,% ID/g Lung,4.42 %ID/g
same,tissue uptake at 24 h,% ID/g Lung,1.38 %ID/g
same,tissue uptake at 72 h,% ID/g Lung,1.41 %ID/g
same,tissue uptake at 4 h,% ID/g Muscle,0.38 %ID/g
same,tissue uptake at 24 h,% ID/g Muscle,0.1 %ID/g
same,tissue uptake at 72 h,% ID/g Muscle,0.03 %ID/g
same,tissue uptake at 4 h,% ID/g Pancreas,4.5 %ID/g
same,tissue uptake at 24 h,% ID/g Pancreas,0.68 %ID/g
same,tissue uptake at 72 h,% ID/g Pancreas,0.19 %ID/g
same,tissue uptake at 4 h,% ID/g Spleen,0.8 %ID/g
same,tissue uptake at 24 h,% ID/g Spleen,0.2 %ID/g
same,tissue uptake at 72 h,% ID/g Spleen,0.13 %ID/g
same,tissue uptake at 4 h,% ID/g Stomach,6.95 %ID/g
same,tissue uptake at 24 h,% ID/g Stomach,2.58 %ID/g
same,tissue uptake at 72 h,% ID/g Stomach,2.13 %ID/g
same,tissue uptake at 4 h,% ID/g Tumor,48.7 %ID/g
same,tissue uptake at 24 h,% ID/g Tumor,23.1 %ID/g
same,tissue uptake at 72 h,% ID/g Tumor,21.4 %ID/g
"C[C@@H](O)[C@H](NC(=O)[C@@H]1CSSC[C@H](NC(=O)[C@@H](Cc2ccccc2)NC(=O)COCCOCCNC(=O)COCCOCCNC(=O)[C@H](CCCCNC(=O)c2cccc(NC(=O)N[C@@H]3CN(C4CCCCC4)c4ccccc4N(CC(=O)C(C)(C)C)C3=O)c2)NC(=O)CN2CCN(CC(=O)O)CCN(CC(=O)O)CCN(CC(=O)O)CC2)C(=O)N[C@@H](Cc2ccc(O)cc2)C(=O)N[C@H](Cc2c[nH]c3ccccc23)C(=O)N[C@@H](CCCCN)C(=O)N[C@@H]([C@@H](C)O)C(=O)N1)C(=O)O [Compound 177Lu-I-39, metal not drawn]",tissue uptake at 4 h,% ID/g Adrenal gland,1.33 %ID/g
same,tissue uptake at 24 h,% ID/g Adrenal gland,1.06 %ID/g
same,tissue uptake at 72 h,% ID/g Adrenal gland,0.3 %ID/g
same,tissue uptake at 4 h,% ID/g Blood,0.91 %ID/g
same,tissue uptake at 24 h,% ID/g Blood,0.33 %ID/g
same,tissue uptake at 72 h,% ID/g Blood,0.06 %ID/g
same,tissue uptake at 4 h,% ID/g Fat,3.38 %ID/g
same,tissue uptake at 24 h,% ID/g Fat,1.07 %ID/g
same,tissue uptake at 72 h,% ID/g Fat,0.27 %ID/g
same,tissue uptake at 4 h,% ID/g Femur,0.9 %ID/g
same,tissue uptake at 24 h,% ID/g Femur,0.42 %ID/g
same,tissue uptake at 72 h,% ID/g Femur,0.1 %ID/g
same,tissue uptake at 4 h,% ID/g Heart,0.84 %ID/g
same,tissue uptake at 24 h,% ID/g Heart,0.38 %ID/g
same,tissue uptake at 72 h,% ID/g Heart,0.12 %ID/g
same,tissue uptake at 4 h,% ID/g Intestine,1.8 %ID/g
same,tissue uptake at 24 h,% ID/g Intestine,0.76 %ID/g
same,tissue uptake at 72 h,% ID/g Intestine,0.24 %ID/g
same,tissue uptake at 4 h,% ID/g Kidney,25.7 %ID/g
same,tissue uptake at 24 h,% ID/g Kidney,12 %ID/g
same,tissue uptake at 72 h,% ID/g Kidney,3.2 %ID/g
same,tissue uptake at 4 h,% ID/g Liver,6.35 %ID/g
same,tissue uptake at 24 h,% ID/g Liver,2.78 %ID/g
same,tissue uptake at 72 h,% ID/g Liver,1.24 %ID/g
same,tissue uptake at 4 h,% ID/g Lung,3.81 %ID/g
same,tissue uptake at 24 h,% ID/g Lung,1.85 %ID/g
same,tissue uptake at 72 h,% ID/g Lung,0.87 %ID/g
same,tissue uptake at 4 h,% ID/g Muscle,0.3 %ID/g
same,tissue uptake at 24 h,% ID/g Muscle,0.13 %ID/g
same,tissue uptake at 72 h,% ID/g Muscle,0.02 %ID/g
same,tissue uptake at 4 h,% ID/g Pancreas,3.71 %ID/g
same,tissue uptake at 24 h,% ID/g Pancreas,0.94 %ID/g
same,tissue uptake at 72 h,% ID/g Pancreas,0.15 %ID/g
same,tissue uptake at 4 h,% ID/g Spleen,0.76 %ID/g
same,tissue uptake at 24 h,% ID/g Spleen,0.31 %ID/g
same,tissue uptake at 72 h,% ID/g Spleen,0.07 %ID/g
same,tissue uptake at 4 h,% ID/g Stomach,6.28 %ID/g
same,tissue uptake at 24 h,% ID/g Stomach,4.63 %ID/g
same,tissue uptake at 72 h,% ID/g Stomach,1.26 %ID/g
same,tissue uptake at 4 h,% ID/g Tumor,41.8 %ID/g
same,tissue uptake at 24 h,% ID/g Tumor,27.5 %ID/g
same,tissue uptake at 72 h,% ID/g Tumor,9.48 %ID/g
"C[C@@H](O)[C@H](NC(=O)[C@@H]1CSSC[C@H](NC(=O)[C@@H](Cc2ccccc2)NC(=O)CNC(=O)[C@H](CO)NC(=O)CNC(=O)[C@H](CCCCNC(=O)c2cccc(NC(=O)N[C@@H]3CN(C4CCCCC4)c4ccccc4N(CC(=O)C(C)(C)C)C3=O)c2)NC(=O)CN2CCN(CC(=O)O)CCN(CC(=O)O)CCN(CC(=O)O)CC2)C(=O)N[C@@H](Cc2ccc(O)cc2)C(=O)N[C@H](Cc2c[nH]c3ccccc23)C(=O)N[C@@H](CCCCN)C(=O)N[C@@H]([C@@H](C)O)C(=O)N1)C(=O)O [Compound 177Lu-I-54, metal not drawn] ({DOTA}-K([3Abz-CO-X1])GSG[dF]CY[dW]KTCT-OH; disulfide 6-11)",tissue uptake at 4 h,% ID/g Adrenal gland,2.34 %ID/g
same,tissue uptake at 24 h,% ID/g Adrenal gland,1.64 %ID/g
same,tissue uptake at 72 h,% ID/g Adrenal gland,1.12 %ID/g
same,tissue uptake at 4 h,% ID/g Blood,0.81 %ID/g
same,tissue uptake at 24 h,% ID/g Blood,0.16 %ID/g
same,tissue uptake at 72 h,% ID/g Blood,0.09 %ID/g
same,tissue uptake at 4 h,% ID/g Fat,3.5 %ID/g
same,tissue uptake at 24 h,% ID/g Fat,3.78 %ID/g
same,tissue uptake at 72 h,% ID/g Fat,2.66 %ID/g
same,tissue uptake at 4 h,% ID/g Femur,0.83 %ID/g
same,tissue uptake at 24 h,% ID/g Femur,0.66 %ID/g
same,tissue uptake at 72 h,% ID/g Femur,0.79 %ID/g
same,tissue uptake at 4 h,% ID/g Heart,1.29 %ID/g
same,tissue uptake at 24 h,% ID/g Heart,0.65 %ID/g
same,tissue uptake at 72 h,% ID/g Heart,0.5 %ID/g
same,tissue uptake at 4 h,% ID/g Intestine,2.07 %ID/g
same,tissue uptake at 24 h,% ID/g Intestine,1.56 %ID/g
same,tissue uptake at 72 h,% ID/g Intestine,1.14 %ID/g
same,tissue uptake at 4 h,% ID/g Kidney,20.7 %ID/g
same,tissue uptake at 24 h,% ID/g Kidney,10.5 %ID/g
same,tissue uptake at 72 h,% ID/g Kidney,8.45 %ID/g
same,tissue uptake at 4 h,% ID/g Liver,31.6 %ID/g
same,tissue uptake at 24 h,% ID/g Liver,9.6 %ID/g
same,tissue uptake at 72 h,% ID/g Liver,5.01 %ID/g
same,tissue uptake at 4 h,% ID/g Lung,2.65 %ID/g
same,tissue uptake at 24 h,% ID/g Lung,2.77 %ID/g
same,tissue uptake at 72 h,% ID/g Lung,1.91 %ID/g
same,tissue uptake at 4 h,% ID/g Muscle,0.3 %ID/g
same,tissue uptake at 24 h,% ID/g Muscle,0.21 %ID/g
same,tissue uptake at 72 h,% ID/g Muscle,0.16 %ID/g
same,tissue uptake at 4 h,% ID/g Pancreas,3.91 %ID/g
same,tissue uptake at 24 h,% ID/g Pancreas,2.65 %ID/g
same,tissue uptake at 72 h,% ID/g Pancreas,2.42 %ID/g
same,tissue uptake at 4 h,% ID/g Spleen,1.25 %ID/g
same,tissue uptake at 24 h,% ID/g Spleen,0.71 %ID/g
same,tissue uptake at 72 h,% ID/g Spleen,1.28 %ID/g
same,tissue uptake at 4 h,% ID/g Stomach,4.81 %ID/g
same,tissue uptake at 24 h,% ID/g Stomach,4.1 %ID/g
same,tissue uptake at 72 h,% ID/g Stomach,4.2 %ID/g
same,tissue uptake at 4 h,% ID/g Tumor,30 %ID/g
same,tissue uptake at 24 h,% ID/g Tumor,25.7 %ID/g
same,tissue uptake at 72 h,% ID/g Tumor,19.6 %ID/g
